As usually defined, the Kd is the free concentration of one partner at which half of the binding sites on the other are occupied at equilibrium, for simple one-to-one binding. Low values mean higher affinity, high ones lower affinity.

The target in the data set is Cro-6His (Cro-like repressor of phage phi10403S) (Listeria monocytogenes 10403S prophage …, UniProt A0A0H3GJS2 1-67). In words: EMSA.

B1: Cro operator probe, native (dsDNA)
DNA 1: TTATAGAGAAACAAAACGTTTCTTTTGG
DNA 2: CCAAAAGAAACGTTTTGTTTCTCTATAA
B1 came in with a Kd of 321 nM.

The values are drawn from publication doi:10.1101/2025.02.27.640495.
